For assay [1], the target named is T1, LI10 (aa608-909) llama-human c-Met chimera (human; Llama glama, UniProt P08581 25-631).
T1 construct: range 1-607 (mature numbering, E=1; derived);range 608-909 (mature numbering, E=1); also called Ll10; not shown: Flag and strep tag
Briefly: ELISA, 48A2 (2 µg/ml) immobilised, chimera added, streptavidin-HRP. From the text: (§1) An ELISA was run to investigate the binding of the mAbs to the different chimeras.

The target in assay [2] is T2, LI8 (aa540-909) llama-human c-Met chimera (human; Llama glama, UniProt P08581 25-563).
T2 construct: range 1-539 (mature numbering, E=1; derived);range 540-909 (mature numbering, E=1); also called Ll8; not shown: Flag and strep tag
Described as above.
Text: as §1

Assay [3] deals with T3, LS2 (aa1-199) llama-human c-Met chimera (Llama glama; human, UniProt P08581 224-933).
T3 construct: range 1-199 (mature numbering, E=1);range 200-909 (mature numbering, E=1; derived); not shown: Flag and strep tag
The assay is described as above.
Text: as §1

Assay [4] has as its target T4, LS4 (aa1-348) llama-human c-Met chimera (Llama glama; human, UniProt P08581 373-933).
T4 construct: range 1-348 (mature numbering, E=1);range 349-909 (mature numbering, E=1; derived); not shown: Flag and strep tag
The assay is described as above.
Text: as §1

For assay [5], the target named is T5, LI11 (aa634-909) llama-human c-Met chimera (human; Llama glama, UniProt P08581 25-657).
T5 construct: range 1-633 (mature numbering, E=1; derived);range 634-909 (mature numbering, E=1); also called Ll11; not shown: Flag and strep tag
The description is as above.
Text: as §1

The target of assay [6] is T6, LI9 (aa572-909) llama-human c-Met chimera (human; Llama glama, UniProt P08581 25-595).
T6 construct: range 1-571 (mature numbering, E=1; derived);range 572-909 (mature numbering, E=1); also called Ll9; not shown: Flag and strep tag
Described as above.
Text: as §1

Assay [7] deals with T7, LS3 (aa1-287) llama-human c-Met chimera (Llama glama; human, UniProt P08581 312-933).
T7 construct: range 1-287 (mature numbering, E=1);range 288-909 (mature numbering, E=1; derived); not shown: Flag and strep tag
The description is as above.
Text: as §1

The target of assay [8] is T8, LS1 (aa1-98) llama-human c-Met chimera (Llama glama; human, UniProt P08581 123-933).
T8 construct: range 1-98 (mature numbering, E=1);range 99-909 (mature numbering, E=1; derived); not shown: Flag and strep tag
Described as above.
Text: as §1

Assay [9] concerns the target T9, LS5 (aa1-448) llama-human c-Met chimera (Llama glama; human, UniProt P08581 473-933).
T9 construct: range 1-448 (mature numbering, E=1);range 449-909 (mature numbering, E=1; derived); not shown: Flag and strep tag
The description is as above.
Text: as §1

For assay [10], the target named is T10, Decoy c-Met (extracellular domain of human c-Met) (human, UniProt P08581 25-932).
T10 construct: extracellular domain; also called Decoy Met; monomeric Decoy Met
Briefly: binding ELISA, human c-Met (Decoy).

Assay [11] has as its target T1, LI10 (aa608-909) llama-human c-Met …. Briefly: ELISA, 36C4 (2 µg/ml) immobilised, chimera added, streptavidin-HRP.
Text: as §1

Assay [12] has as its target T2, LI8 (aa540-909) llama-human c-Met …. The assay is described as above.
Text: as §1

The target of assay [13] is T11, LP6 (aa497-909) llama-human c-Met chimera (human; Llama glama, UniProt P08581 25-520).
T11 construct: range 1-496 (mature numbering, E=1; derived);range 497-909 (mature numbering, E=1); not shown: Flag and strep tag
The description is as above.
Text: as §1

The target in assay [14] is T5, LI11 (aa634-909) llama-human c-Met …. Described as above.
Text: as §1

Assay [15] has as its target T6, LI9 (aa572-909) llama-human c-Met …. Described as above.
Text: as §1

For assay [16], the target named is T12, LP7* (aa523-909) llama-human c-Met chimera (human; Llama glama, UniProt P08581 25-546).
T12 construct: range 1-522 (mature numbering, E=1; derived);range 523-909 (mature numbering, E=1); not explained further; not shown: Flag and strep tag
The description is as above.
Text: as §1

Assay [17] addresses T8, LS1 (aa1-98) llama-human c-Met chimera. The description is as above.
Text: as §1

The target in assay [18] is T13, recombinant dimeric c-Met (R&D systems, 358-MT/CF) (human, UniProt P08581 25-932).
T13 construct: Bought product; also called Fc-Met; recombinant c-Met
The assay can be described thus: competition ELISA: recombinant dimeric c-Met (100 ng/ml) captured by coated mouse anti-His antibody; antibody dilutions 30 min, then 25 ng/ml N-terminally biotinylated HGF (the competitor); strep-HRP, TMB, 620 nm; percent competition against the controls. How it is done:
Competition with N-terminally biotinylated HGF for binding to immobilized c-Met was performed using an ELISA-based competition assay. Five μg/ml mouse anti-His antibodies (Serotech) was immobilized on a maxisorb plate and, after blocking with 1% casein in PBS for 2 h, 100 ng/ml recombinant dimeric c-Met was added and incubated for 1 h at room temperature. After washing, dilutions of the antibodies were added and allowed to bind to the captured c-Met for 30 minutes, before 25 ng/ml N-terminally biotinylated HGF (R&D systems, 294-HGN/CF) was added. Biotinylated HGF was incubated at room temperature for 1 h before washing. Horseradish-conjugated streptavidin (strep-HRP) was added and incubated for an additional hour. TMB was added and the plate read at 620 nm. An isotype control (hIgG1λ) was included as a control as well as murine 5D5 antibody. Competition was expressed as percentage competition as compared to the controls (strep-HRP only or hIgG1λ) and plotted against the concentration of antibodies. An IC₅₀ was calculated using GraphPad Prism (Table 10). Antibodies 13E6 and 20A11 only displaced HGF partially (about 50%), which may be related to the epitope these two mAbs recognize on the c-Met.

Assay [19] deals with T14, human/llama-IPT chimeric c-Met ECD (human; Llama glama, UniProt P08581 25-567).
T14 construct: range 25-567;range 568-932; Human c-Met in which IPT1-4 is exchanged for the llama IPT1-4; also called human/llama IPT1-4; construct with the human SEMA-PSI; not shown: His tag
Briefly: ELISA: 200 ng of the c-Met ECD protein coated on maxisorb plates; mAb dilutions 1 h RT; HRP-conjugated goat anti-human antibody, TMB, OD 620 nm.

In assay [20] the target is T15, human c-Met ECD (aa 25-932) with His tag (human, UniProt P08581 25-932).
T15 construct: range 25-932; Soluble protein from HEK293 cells; also called human c-Met (WT); not shown: His tag
The description is as above.

Assay [21] addresses T16, Rhesus (Maccaca mulatta, US20090191580-5) c-Met ECD (Rhesus (Maccaca mulatta)).
T16 construct: extracellular domain; also called Rhesus c-Met ECD; Rhesus ECD
Briefly: binding ELISA, Rhesus c-Met ECD immobilised (1 µg/ml). How it is done:
Cross reactivity to Rhesus (Maccaca mulatta, US20090191580_{—}5) c-Met ECD and mouse c-Met (R&D systems cat no: 527-ME) was performed in a binding ELISA. Rhesus ECD was immobilized in PBS (1 μg/ml) on a 96-well maxisorb plate and incubated at 4° C. over night. After blocking with 1% casein in PBS, the antibodies in dilutions starting with 10 μg/ml were added and allowed to bind for 1 h at room temperature. The plate was washed and a goat anti-human Fcγ antibody (Jackson) was added and incubated for 1 h at room temperature. After washing, TMB was added and the plate read at 620 nm

Assay [22] concerns the target T10, Decoy c-Met (extracellular domain of …). The assay can be described thus: ELISA: c-Met ectodomain coated at 1 µg/ml on maxisorb plate; mAb in three-fold dilutions from 1 µg/ml, 1 h RT; HRP-conjugated Protein A, TMB, OD 450.
The target in assay [23] is T17, HMet (human c-Met of Table 16) (human, UniProt P08581 25-932, limits assumed).
T17 construct: Label not explained in the text; not shown: Flag and strep tag
The assay can be described thus: ELISA, 36C4 (2 µg/ml) immobilised, c-Met construct added, streptavidin-HRP.
Text: as §1

A value given as a limit tells only on which side of the number the result lay.

T8 sequence (P08581 123-933, change not shown): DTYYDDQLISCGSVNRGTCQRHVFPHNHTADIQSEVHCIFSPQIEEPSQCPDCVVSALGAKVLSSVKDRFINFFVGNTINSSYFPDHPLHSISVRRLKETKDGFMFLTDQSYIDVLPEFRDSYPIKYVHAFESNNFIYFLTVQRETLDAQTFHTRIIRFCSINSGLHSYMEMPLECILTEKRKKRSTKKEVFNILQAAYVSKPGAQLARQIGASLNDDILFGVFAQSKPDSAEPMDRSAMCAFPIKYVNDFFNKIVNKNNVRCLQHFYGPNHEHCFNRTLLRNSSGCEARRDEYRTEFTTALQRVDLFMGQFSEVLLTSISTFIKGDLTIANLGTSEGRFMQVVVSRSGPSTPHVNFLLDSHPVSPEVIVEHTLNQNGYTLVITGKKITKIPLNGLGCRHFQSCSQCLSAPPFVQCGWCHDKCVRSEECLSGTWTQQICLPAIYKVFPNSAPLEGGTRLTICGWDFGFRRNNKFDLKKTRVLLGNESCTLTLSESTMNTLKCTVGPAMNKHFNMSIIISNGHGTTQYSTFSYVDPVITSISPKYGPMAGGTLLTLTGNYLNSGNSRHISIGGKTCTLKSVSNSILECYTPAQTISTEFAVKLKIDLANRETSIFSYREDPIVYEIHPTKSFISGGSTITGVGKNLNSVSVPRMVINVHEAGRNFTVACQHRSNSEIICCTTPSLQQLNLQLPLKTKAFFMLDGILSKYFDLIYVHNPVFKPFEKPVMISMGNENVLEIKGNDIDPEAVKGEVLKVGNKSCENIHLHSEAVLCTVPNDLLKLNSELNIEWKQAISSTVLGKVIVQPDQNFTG
T5 sequence (P08581 25-657, change not shown): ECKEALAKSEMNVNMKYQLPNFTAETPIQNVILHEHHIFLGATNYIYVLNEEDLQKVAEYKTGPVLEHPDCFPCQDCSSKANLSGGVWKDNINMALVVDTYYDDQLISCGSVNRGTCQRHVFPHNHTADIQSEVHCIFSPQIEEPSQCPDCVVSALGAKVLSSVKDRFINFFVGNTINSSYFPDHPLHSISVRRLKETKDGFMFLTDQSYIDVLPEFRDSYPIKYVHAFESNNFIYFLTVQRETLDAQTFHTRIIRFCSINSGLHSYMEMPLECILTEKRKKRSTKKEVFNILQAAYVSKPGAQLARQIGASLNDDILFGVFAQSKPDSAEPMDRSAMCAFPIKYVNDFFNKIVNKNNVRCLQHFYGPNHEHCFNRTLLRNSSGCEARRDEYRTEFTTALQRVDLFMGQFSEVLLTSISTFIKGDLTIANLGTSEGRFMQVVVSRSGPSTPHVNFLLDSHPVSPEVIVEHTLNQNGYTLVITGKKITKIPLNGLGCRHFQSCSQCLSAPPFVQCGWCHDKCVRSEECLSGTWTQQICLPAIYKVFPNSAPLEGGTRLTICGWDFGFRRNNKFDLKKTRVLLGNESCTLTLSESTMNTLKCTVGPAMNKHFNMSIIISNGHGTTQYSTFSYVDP
T1 sequence (P08581 25-631, change not shown): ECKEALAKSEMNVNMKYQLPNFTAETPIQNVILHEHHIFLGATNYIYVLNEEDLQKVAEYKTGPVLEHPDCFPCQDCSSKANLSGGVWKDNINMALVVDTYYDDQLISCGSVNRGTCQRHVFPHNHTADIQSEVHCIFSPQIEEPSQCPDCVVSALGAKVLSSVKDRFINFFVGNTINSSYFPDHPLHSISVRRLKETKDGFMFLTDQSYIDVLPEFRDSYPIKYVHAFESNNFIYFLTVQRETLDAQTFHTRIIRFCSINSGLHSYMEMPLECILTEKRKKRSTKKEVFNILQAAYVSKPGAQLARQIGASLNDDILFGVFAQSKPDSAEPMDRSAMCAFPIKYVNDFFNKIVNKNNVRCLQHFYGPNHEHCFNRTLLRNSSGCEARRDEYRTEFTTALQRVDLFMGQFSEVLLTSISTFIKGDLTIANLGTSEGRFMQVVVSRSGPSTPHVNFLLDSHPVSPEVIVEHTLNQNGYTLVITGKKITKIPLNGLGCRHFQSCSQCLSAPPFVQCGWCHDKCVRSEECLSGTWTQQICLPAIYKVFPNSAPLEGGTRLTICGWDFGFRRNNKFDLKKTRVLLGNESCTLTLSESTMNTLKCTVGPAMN
T2 sequence (P08581 25-563, change not shown): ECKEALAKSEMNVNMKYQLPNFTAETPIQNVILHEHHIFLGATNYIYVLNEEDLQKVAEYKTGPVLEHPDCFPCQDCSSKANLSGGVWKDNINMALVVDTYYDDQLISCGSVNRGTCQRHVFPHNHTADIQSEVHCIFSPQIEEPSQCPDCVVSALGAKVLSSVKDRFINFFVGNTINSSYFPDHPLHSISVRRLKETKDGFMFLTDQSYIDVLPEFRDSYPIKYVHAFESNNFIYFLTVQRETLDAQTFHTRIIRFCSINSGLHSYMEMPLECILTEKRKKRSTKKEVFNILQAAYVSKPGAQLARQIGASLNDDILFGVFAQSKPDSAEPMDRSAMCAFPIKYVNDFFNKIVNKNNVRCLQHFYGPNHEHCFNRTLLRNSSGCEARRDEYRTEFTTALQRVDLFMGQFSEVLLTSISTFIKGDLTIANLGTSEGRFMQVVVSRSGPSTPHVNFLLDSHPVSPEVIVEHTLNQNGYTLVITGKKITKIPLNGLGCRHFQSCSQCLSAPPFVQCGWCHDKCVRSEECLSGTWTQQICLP
T6 sequence (P08581 25-595, change not shown): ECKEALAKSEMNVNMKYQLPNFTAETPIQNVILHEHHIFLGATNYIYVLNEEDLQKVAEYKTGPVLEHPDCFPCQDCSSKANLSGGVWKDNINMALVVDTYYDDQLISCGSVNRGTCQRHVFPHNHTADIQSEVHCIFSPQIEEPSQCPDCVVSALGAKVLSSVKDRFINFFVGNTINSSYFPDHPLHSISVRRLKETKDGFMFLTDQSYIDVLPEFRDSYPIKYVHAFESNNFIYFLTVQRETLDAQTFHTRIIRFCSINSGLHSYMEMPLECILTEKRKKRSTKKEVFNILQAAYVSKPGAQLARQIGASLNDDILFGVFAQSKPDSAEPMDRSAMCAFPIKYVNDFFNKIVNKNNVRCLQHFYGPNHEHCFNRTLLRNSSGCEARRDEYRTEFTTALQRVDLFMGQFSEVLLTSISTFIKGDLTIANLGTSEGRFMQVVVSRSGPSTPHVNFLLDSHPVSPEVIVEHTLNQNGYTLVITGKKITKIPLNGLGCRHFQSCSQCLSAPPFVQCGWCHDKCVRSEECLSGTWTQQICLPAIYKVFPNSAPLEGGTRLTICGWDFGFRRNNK
T10 sequence (P08581 25-932): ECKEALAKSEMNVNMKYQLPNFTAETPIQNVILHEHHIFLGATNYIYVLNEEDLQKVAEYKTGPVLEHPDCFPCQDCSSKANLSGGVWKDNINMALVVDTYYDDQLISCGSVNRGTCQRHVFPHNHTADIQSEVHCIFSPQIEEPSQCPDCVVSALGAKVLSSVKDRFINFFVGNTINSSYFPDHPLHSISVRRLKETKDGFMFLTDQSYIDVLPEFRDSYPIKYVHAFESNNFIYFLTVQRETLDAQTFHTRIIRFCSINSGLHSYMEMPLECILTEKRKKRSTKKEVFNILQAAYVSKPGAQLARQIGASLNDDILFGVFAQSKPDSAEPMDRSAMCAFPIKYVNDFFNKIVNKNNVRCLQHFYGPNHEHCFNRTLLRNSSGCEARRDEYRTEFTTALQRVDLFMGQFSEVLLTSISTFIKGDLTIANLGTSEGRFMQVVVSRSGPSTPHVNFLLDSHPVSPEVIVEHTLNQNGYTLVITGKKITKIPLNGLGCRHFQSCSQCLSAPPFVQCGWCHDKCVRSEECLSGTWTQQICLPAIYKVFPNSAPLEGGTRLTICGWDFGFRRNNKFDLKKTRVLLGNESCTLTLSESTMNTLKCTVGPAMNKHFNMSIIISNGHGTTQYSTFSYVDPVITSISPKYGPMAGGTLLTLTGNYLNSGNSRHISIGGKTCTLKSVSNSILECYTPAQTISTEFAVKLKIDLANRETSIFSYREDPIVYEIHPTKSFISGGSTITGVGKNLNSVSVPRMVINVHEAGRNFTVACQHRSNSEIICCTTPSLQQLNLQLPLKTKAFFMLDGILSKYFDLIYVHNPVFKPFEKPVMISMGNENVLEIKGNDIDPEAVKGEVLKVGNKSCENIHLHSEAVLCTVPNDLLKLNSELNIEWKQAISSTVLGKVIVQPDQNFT
T3 sequence (P08581 224-933, change not shown): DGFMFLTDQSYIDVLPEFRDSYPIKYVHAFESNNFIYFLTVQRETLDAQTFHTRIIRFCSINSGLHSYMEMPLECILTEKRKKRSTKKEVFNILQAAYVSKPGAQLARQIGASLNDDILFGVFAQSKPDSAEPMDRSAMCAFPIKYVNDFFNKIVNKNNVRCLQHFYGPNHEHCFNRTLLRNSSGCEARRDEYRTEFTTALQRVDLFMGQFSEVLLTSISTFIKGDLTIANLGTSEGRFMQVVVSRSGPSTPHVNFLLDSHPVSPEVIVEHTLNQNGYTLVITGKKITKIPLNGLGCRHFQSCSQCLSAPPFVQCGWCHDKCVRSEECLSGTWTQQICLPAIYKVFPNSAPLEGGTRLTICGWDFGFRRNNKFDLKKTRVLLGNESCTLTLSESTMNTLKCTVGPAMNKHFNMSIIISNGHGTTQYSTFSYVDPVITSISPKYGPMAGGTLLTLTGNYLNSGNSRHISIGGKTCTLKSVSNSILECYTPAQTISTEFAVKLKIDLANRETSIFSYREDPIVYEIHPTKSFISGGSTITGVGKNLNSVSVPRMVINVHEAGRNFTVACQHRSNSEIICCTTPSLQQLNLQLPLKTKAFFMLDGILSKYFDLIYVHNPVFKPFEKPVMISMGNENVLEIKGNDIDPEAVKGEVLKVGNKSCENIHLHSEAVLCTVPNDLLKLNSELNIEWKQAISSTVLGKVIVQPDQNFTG
T13 sequence (P08581 25-932 limits assumed): as the sequence (P08581 25-932) above
T17 sequence (P08581 25-932 limits assumed): as the sequence (P08581 25-932) above
T15 sequence (P08581 25-932 limits assumed): as the sequence (P08581 25-932) above

B1: 48A2 mAb (antibody, V domains shown)
VH: EVQLVQPGVELRNPGASVKVSCKASGYIFTMNSIDWVRQAPGQGLEWMGRIDPEDGGTKYAQKFQGRVTFTADTSTSTAYVELNSLRSEDTAVYYCARVDDYYLGYDYWGQGTQVTVSS
VL: DIVMTQTPTSVTASAGDKVTINCKSSQSVLFSSNQKNYLAWYQQRLGQSPRLLIYWASIRESGVPDRFSGSGSATDFTLTISNFQPEDAAVYYCQQGYSFPYSFGSGTRLEIR
As to B1, the EC50 in assay [1] was over 0.04 µg/mL; in assay [2], over 0.04 µg/mL; in [3], 0.034 µg/mL; in assay [4] it was 0.07 µg/mL; in [5] it was 0.042 µg/mL; in [6], over 0.04 µg/mL. Besides, the EC50 in assay [7] is 0.05 µg/mL; in [8], 0.031 µg/mL; in [9], 0.05 µg/mL.

B2: 36C4 mAb (antibody, V domains shown)
VH: QVQLVESGPGLVKPSQTLSLTCAVSGGSITTNYYYWSWIRQSPGKGLEWMGVIAYDGSTDYSPSLKSRTSISRDTSKNQFSLQLSSVTPEDTAVYYCARDVRVIATGWATANALDAWGQGTLVTVSS
VL: QSVLTQPPSVSGSPGKTVTISCAGTSSDVGYGNYVSWYQQLPGTAPKLLIFAVSYRASGIPDRFSGSKSGNTAFLTISGLQSEDEADYYCASYRSSNNAAVFGGGTHLTVL
notes: also called SIMPLE antibody 36C4
In the case of B2, the EC50 in assay [10] was 0.13 nM; in assay [11], 0.047 µg/mL; in assay [12], 0.047 µg/mL; in [13] it was 0.05 µg/mL; in [14] it was 0.045 µg/mL; in assay [15], 0.047 µg/mL. The EC50 in assay [16] was 0.055 µg/mL; in [17], 0.068 µg/mL; in assay [21], 0.14 nM; in [23], 0.06 µg/mL. Also, the “IC50 (read off the curve)” value in assay [18] is about 0.2 nM. For the same molecule, the “EC50 (read off the curve)” value is about 0.6 nM in assay [19], about 0.6 nM in assay [20] and about 0.02 µg/mL in assay [22].
